# Starred links: 1 amine or outer side, 2 acyl side, 3 side chain; linkers in the order of their positions; H or OH if unused. Groups on a side chain read outwards from the residue. No end group written: not given here. 2‑(S)‑cyano pyrrolidyl = 2-(S)-cyano pyrrolidyl group; γGlu = O=C(O)[C@H](CCC(=O)[*:2])N[*:1]; AEEA = NCCOCCOCC(=O)O
# T1: endogenously expressed GLP-1 receptor of thyroid c-cell carcinoma line 6-23 (UniProt P32301 22-463)
# T1 sequence (looked up): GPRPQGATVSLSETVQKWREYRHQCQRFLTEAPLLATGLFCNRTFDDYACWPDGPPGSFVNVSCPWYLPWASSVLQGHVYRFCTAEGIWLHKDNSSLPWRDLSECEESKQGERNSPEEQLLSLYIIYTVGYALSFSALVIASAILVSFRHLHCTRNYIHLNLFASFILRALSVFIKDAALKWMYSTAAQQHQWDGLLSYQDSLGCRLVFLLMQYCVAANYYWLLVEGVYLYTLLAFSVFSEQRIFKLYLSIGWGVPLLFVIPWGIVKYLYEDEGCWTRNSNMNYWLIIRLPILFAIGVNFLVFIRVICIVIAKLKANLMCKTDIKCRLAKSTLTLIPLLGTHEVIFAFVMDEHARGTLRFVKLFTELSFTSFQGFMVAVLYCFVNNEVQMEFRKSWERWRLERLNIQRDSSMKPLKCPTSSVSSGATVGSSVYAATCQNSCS
# Biological target: T1, endogenously expressed GLP-1 receptor …
# Assay: cell-based or functional assay
row,GLP Cyclase EC50,Binder
1,0.4 nM,HAEGTFTSDVSSYLEGQAAKEFIAWLVKGRG (lisinopril joined at the C-terminus through linker type C9 of FIG. 2) [5547]

# Biological target: Recombinant DPP-IV
# Assay: cell-based or functional assay
row,DPP-IV IC50,Binder
1,109 nM,YAEGTFISDYSIALDKIHQQDFVNWLLAQK-{AEEA-Lys(N-ε-(2-(S)-cyano pyrrolidyl))} [[Leu^14] GIP(1-30)-Ado-Lys-N-ε-(2-(S)-cyano pyrrolidyl)]
2,64 nM,YAEGTFISDYSIAMDKIHQQDFVNWLLAQK (N-terminus acylated with γ-L-Glu-(2-(S)-cyano pyrrolidyl)-Ado-Ado) [N-(γ-L-Glu-2-(S)-cyano pyrrolidyl)-Ado-Ado) GIP(1-30)]
3,98 nM,YAEGTFISDYSIAMDKIHQQDFVNWLLAQK (C-terminus extended with Ado-Lys-N-ε-(2-(S)-cyano pyrrolidyl)) [GIP(1-30)-Ado-Lys-N-ε-(2-(S)-cyano pyrrolidyl)]

# The remaining lines, values behind:
row,Binder,DPP-IV IC50
1,YAEGTFISDYSIAMDKIHQQDFVNWLLAQK (C-terminus extended with Ado-Ado-Lys-N-ε-(2-(S)-cyano pyrrolidyl)) [GIP(1-30)-Ado-Ado-Lys-N-ε-(2-(S)-cyano pyrrolidyl)],114 nM
2,YAEGTFISDYSIAMDKIHQQDFVNWLLAQK([AEEA-γGlu-2‑(S)‑cyano pyrrolidyl]) [Lys^30 N-ε-(Ado-(γ-L-Glu-2-(S)-cyano pyrrolidyl)) GIP(1-30)],49 nM
